The values below come from patent publication US20240067734A1 (Hoffmann-La Roche, published 2024).

Assay [1] has as its target T1, human NKG2D expressed on cells (human, UniProt P26718 1-216).
T1 construct: the cell type is named under assay; also called NKG2D on NK92 cells; HEK293T human NKG2D
T1 chain: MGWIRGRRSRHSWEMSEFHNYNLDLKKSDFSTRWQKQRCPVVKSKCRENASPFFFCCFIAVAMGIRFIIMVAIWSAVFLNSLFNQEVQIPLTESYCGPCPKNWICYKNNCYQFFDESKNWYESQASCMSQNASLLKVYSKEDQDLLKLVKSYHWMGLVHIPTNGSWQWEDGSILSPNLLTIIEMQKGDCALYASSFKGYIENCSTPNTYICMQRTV
The assay is described as follows: flow cytometry on NK cells (CD3- CD56+) within freshly isolated human PBMCs, anti-human Fc secondary antibody. As for the experimental part:
(§1) Viability of freshly isolated peripheral blood mononuclear cells (PBMCs) was checked and cells were adjusted to a density of 1 mio cells/ml in FACS buffer. 100 μl per well of the PBMCs (containing 0.1 mio cells) were seeded into a 96 well round bottom plate. The plate was centrifuged for 4 min at 400×g and the supernatant was removed. Then 0.5 μl FC BLOCK™ (BD Bioscience) in 20 μl total volume per well were added and the plate was incubated for 30 min at 4° C. Supernatant was removed and then 40 μl of the diluted anti-NKG2D antibodies were added to the cells and incubated for additional 30 min at 4° C. After the incubation, the cells were washed twice with 150 μl FACS buffer per well. […] The cells were incubated for an additional 30 min at 4° C. To remove unbound antibody, the cells were washed again twice with 150 μl per well FACS buffer. To fix the cells, 100 μl of FACS buffer containing 1% PFA were added to the wells. Before measuring the cells were re-suspended in 150 μl FACS buffer. The fluorescence was measured using a BD flow cytometer.
For orientation: A flow cytometer gives signals particle by particle.

Assay [2] concerns the target T2, CEA expressed on LS180 tumor cells (human, UniProt P06731 35-685).
T2 construct: whole, on cells; also called carcinoembryonic antigen; CEACAM5
T2 sequence (looked up): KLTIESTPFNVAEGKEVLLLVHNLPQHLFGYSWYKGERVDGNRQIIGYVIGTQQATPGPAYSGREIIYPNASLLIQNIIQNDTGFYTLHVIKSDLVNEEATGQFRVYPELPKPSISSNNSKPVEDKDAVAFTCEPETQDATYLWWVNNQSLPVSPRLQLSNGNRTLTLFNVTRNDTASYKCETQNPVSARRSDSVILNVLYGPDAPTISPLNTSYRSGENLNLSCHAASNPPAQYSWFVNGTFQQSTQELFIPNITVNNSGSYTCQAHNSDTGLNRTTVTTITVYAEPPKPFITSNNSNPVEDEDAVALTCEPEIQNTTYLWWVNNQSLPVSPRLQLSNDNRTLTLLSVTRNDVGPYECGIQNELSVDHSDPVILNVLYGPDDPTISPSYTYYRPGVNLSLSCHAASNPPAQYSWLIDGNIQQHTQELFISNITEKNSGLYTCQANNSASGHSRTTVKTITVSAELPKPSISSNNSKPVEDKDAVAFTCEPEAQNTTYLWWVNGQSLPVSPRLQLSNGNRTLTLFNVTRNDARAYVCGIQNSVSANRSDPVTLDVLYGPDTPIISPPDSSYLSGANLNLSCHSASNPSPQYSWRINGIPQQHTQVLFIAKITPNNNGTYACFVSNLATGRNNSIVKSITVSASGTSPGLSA
As to the kind of experiment: flow cytometry on CEA-positive LS180 cells, anti-human Fc secondary antibody. As for the experimental part: (§2) Viability of NK92 cells or tumor cells (MKN-45, LS180) was checked and cells were re-suspended and adjusted to a density of 1 mio cells/ml. 100 μl per well of this cell suspension (containing 0.1 mio cells) were seeded into a 96 well round bottom plate. The plate was centrifuged for 4 min at 400×g and the supernatant was removed. Then 40 μl of the diluted antibodies or FACS buffer were added to the cells and incubated for 30 min at 4° C. After the incubation the cells were washed twice with 150 μl FACS buffer per well. […] The cells were incubated for an additional 30 min at 4° C. To remove unbound antibody, the cells were washed again twice with 150 μl per well FACS buffer. To fix the cells, 100 μl of FACS buffer containing 1% PFA were added to the wells. Before measuring, the cells were re-suspended in 150 μl FACS buffer. The fluorescence was measured using a BD flow cytometer.

In assay [3] the target is T1, human NKG2D expressed on cells. As to the kind of experiment: flow cytometry on CD8 T cells (CD3+ CD8+) within freshly isolated human PBMCs, anti-human Fc secondary antibody. As for the experimental part: as §1
The target is the same in assay [4]. The assay is described as follows: flow cytometry on NKG2D-positive NK92 cells, anti-human Fc secondary antibody. As for the experimental part: as §2

B1: NKG2D×CEA bispecific antibody, anti-NKG2D 395 (C50S) / anti-CEA B9, M format (bispecific antibody, V domains shown)
VH 1: QEQLEQSGGGLVTPGGSLKLCCTASGFDFNTFWMTWVRQAPGKGLEWIGSIHGGSGSRDYASWVNGRFTLSRDIDQSTACLQVNSLTAADTAMYYCARPGYRSWSKTFDLWGQGTMVTVSS
VL 1: DIQMTQSPSSLSASVGDRVTITCRASQDISGALNWYQQKPGKAPNLLIYAASSLQSGVPSRFSGSGSGTDYTLTISSLQPEDFATYYCQQANSFPLTFGGGTKVEIK
VH 2: VQLVESGGGLVQPGRSLRLSCAASGFTVSSYWMHWVRQAPGKGLEWVGFIRNKANGGTTEYAASVKGRFTISRDDSKNTLYLQMNSLRAEDTAVYYCARDRGLRFYFDYWGQGTTVTVSS
VL 2: QAVLTQPASLSASPGASASLTCTLRRGINVGAYSIYWYQQKPGSPPQYLLRYKSDSDKQQGSGVSSRFSASKDASANAGILLISGLQSEDEADYYCMIWHSGASAVFGGGTKLTVL
notes: also called monovalent format M
Broadly, the EC50 (read off the curve) is the concentration at which the effect is half-maximal. For B1, the “EC50 (read off the curve)” value in assay [1] was roughly 5 nM; in assay [2], roughly 10 nM; in assay [3], roughly 5 nM; in assay [4] it was roughly 4 nM.
